Source: patent publication US20200308299A1, “ANTI-GPC-1 ANTIBODY” (National University Corporation Kochi University, priority 2017, published 2020)

What was measured:
[1] = tested on: LLC-mGPC1-16; assay: In vivo efficacy test on GPC1 ADC, mouse syngenic model using mGPC1 expressing LLC cell strain
From the text: A mouse model (syngenic mouse) with GPC1 expressed in normal cells that is consistent with GPC1 expressed from cancer cells (i.e., both mouse GPC1) can be prepared by grafting the cell strain expressing mouse GPC1 established in Example 16 into mice. The efficacy and safety can be more accurately evaluated in an experiment using such a mouse model.
FIG. 55 schematically depicts the test in this Example. Specifically, 5.0×10^6 cells of LLC-mGPC1-16 were subcutaneously grafted into female C57BL/6 mice. […] The tumor volume and body weight were measured on day 0, day 4, day 8, day 12, day 16, day 20, and day 24.

[2] = target: T1, Recombinant human Glypican-1 protein (Homo sapiens, UniProt P35052); assay: Antigen affinity analysis by ELISA on immobilized recombinant human GPC1; type: binding; conditions: for affinity to antigen (ELISA, OD 450 nm): recombinant human GPC1 coated at 2.5 μg/mL
T1 construct: purchased R&D systems 4519-GP-050
T1 sequence (P35052 24-530 limits assumed): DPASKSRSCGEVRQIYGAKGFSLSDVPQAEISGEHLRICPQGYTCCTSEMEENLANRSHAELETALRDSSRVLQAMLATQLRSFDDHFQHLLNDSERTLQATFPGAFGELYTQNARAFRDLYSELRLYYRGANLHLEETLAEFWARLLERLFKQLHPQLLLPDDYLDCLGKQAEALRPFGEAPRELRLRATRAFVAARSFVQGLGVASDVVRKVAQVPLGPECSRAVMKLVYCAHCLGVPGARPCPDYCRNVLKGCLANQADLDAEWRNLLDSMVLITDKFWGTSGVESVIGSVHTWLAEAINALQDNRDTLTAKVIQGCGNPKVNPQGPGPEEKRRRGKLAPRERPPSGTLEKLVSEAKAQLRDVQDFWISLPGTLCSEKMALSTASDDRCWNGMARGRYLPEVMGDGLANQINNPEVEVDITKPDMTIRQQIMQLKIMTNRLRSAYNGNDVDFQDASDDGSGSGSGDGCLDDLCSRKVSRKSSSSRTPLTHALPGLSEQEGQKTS
Method: The buffer used in this Example was prepared as follows.
The primary antibodies used in this Example were prepared. GPC1-CL-MMAF and anti-GPC1 monoclonal antibodies (01a033) were diluted stepwise to 100, 20, 4, 0.8, 0.16, 0.032, 0.0064, 0.00128, 0.000256, 0.0000512, and 0.00001024 nM with a dilution buffer. Recombinant human Glypican-1 proteins (CF, model number: 4519-GP-050, volume: 50 μg) were used as the antigen.
Recombinant human GPC1 was diluted to 2.5 μg/mL with PBS (−) and added to 64 wells of Immuno 96 well MicroWell Solid Plate (Maxisorp, Nunc) at 50 μL/well, and the plate was sealed. The plate was shaken, and liquid was confirmed to spread throughout the plate. Next, the following procedure was followed.
*Dilute (1) GPC1-CL-MMAF and (2) anti-GPC1 monoclonal antibody (01a033) with a dilution buffer in a 10-fold dilution series from 100 nM, and add the mixture to the 96-well microplate at 100 μL/well.
*Dilute Anti-Mouse IgG (H+L) Antibody, Human Serum Adsorbed and Peroxidase labeled (KPL, cat. No.: 474-1806) with a dilution buffer (10% Block Ace) to 0.2 μg/ml (prepare a 5000-fold dilution upon use), and add the mixture to the 96-well microplate at 100 μL/well.
*Return TMB (SurModics, TMBW-1000-01) to normal temperature before use, and add the TMB to the 96-well microplate at 100 μL/well.
*Measure absorbance at 450 nm.
*Analyze data with GraphPad Prism 6.04.

[3] = tested on: TE8 cells; assay: Internalization assay on GPC1 ADC (01a033), TE8 cells; type: cell-based; conditions: 0-24 h
Method: Detection was performed on cells treated with GPC1 ADC (01a033) MMAF with anti-GPC1 mAb (biotin-labeled 02b006) and PE-labeled streptavidin.
TE8, HeLa, ME180, BxPC3, and T3M4 cell strains were detached and collected from a 10 cm plate using 0.02% EDTA. Cells were suspended in RPMI1640+10% FBS+100 U/ml penicillin+100 μg/ml streptomycin, and two 1.5 ml tubes were created at 1.0×10^6 cells/0.9 ml. To lower the internalization activity, the tubes were left standing on ice for 1 hour. 1 mg/ml of GPC1 ADC (01a033) MMAF was diluted to 24 μg/mL (160 nM) with ice-cooled RPMI1640+10% FBS+100 U/ml penicillin+100 μg/ml streptomycin. 100 μl of the ADC was added and suspended in the cell suspension and incubated on ice for 30 minutes to stain the antigens on the cell surface. After 30 minutes, the cell suspension was dispensed into 7 tubes each at 100 μl each. The cell suspension was separated into 4° C. incubation group and 37° C. incubation group in 14 tubes. The incubation times were 0.0 h, 1 h, 2 h, 3 h, 4 h, 6 h, 12 h, and 24 h. After reaching the incubation time, the cells were centrifuged at 1500 rpm at 4° C. for 5 minutes to remove the supernatant. The cells were washed with 100 μl of ice cooled PBS+0.2% BSA and subjected to centrifugation to wash the cells. Washing operation was performed three times in total. […]

| Molecule | antitumor effect against tumor expressing mouse GPC-1 ([1]; 1, 3, 10 mg/kg) | affinity to antigen (ELISA, OD 450 nm) [2] | tumor growth ([1]; 1 mg/kg iv day 0, 4, 8, 12, compared to the control group) | tumor growth ([1]; 3 mg/kg iv day 0, 4, 8, 12) | tumor growth ([1]; 10 mg/kg iv day 0, 4, 8, 12) | body weight ([1]; 10 mg/kg, tended to recover after 15 days from the start of administration) | toxicity ([1]; syngenic mice, 1, 3, 10 mg/kg) | residual amount of Glypican-1 on the cell surface ([3]; TE8, incubation at 4° C.) | Glypican-1 remaining on the cell surface ([3]; TE8, incubation at 37° C.) | affinity level of ADC compared with unlabeled antibody ([2]; 01a033 versus 01a033 ADC) |
| --- | --- | --- | --- | --- | --- | --- | --- | --- | --- | --- |
| clone 01a033 (antibody) heavy: QVQLKQSGPELVKPGASVKISCKASGYSFTGYYMHWVKQSPEKSLEWIGEINPSTGDTTYNQKFKAKATLTVDKSSSTAYMQLKSLTSEDSAVYYCAREKRDDGVFAYWGQGTLVTVSSAKTTAPSVYPLAPVCGDTTGSSVTLGCLVKGYFPEPVTLTWNSGSLSSGVHTFPAVLQSDLYTLSSSVTVTSSTWPSQSITCNVAHPASSTKVDKKIEPRGPTIKPCPPCKCPAPNLLGGPSVFIFPPKIKDVLMISLSPIVTCVVVDVSEDDPDVQISWFVNNVEVHTAQTQTHREDYNSTLRVVSALPIQHQDWMSGKEFKCKVNNKDLPAPIERTISKPKGSVRAPQVYVLPPPEEEMTKKQVTLTCMVTDFMPEDIYVEWTNNGKTELNYKNTEPVLDSDGSYFMYSKLRVEKKNWVERNSYSCSVVHEGLHNHHTTKSFSRTPGK light: DIVMSQSPKSMSMSVGERVALSCKASENVGTYVSWYQQKPEQSPKLLIYGASNRYTGVPDRFTGSGSATDFTLTISSVQAEDLADYYCGQSYSYPLTFGAGTKLELKRADAAPTVSIFPPSSEQLTSGGASVVCFLNNFYPKDINVKWKIDGSERQNGVLNSWTDQDSKDSTYSMSSTLTLTKDEYERHNSYTCEATHKTSTSPIVKSFNRNEC | high antitumor effect | high affinity |  |  |  |  |  |  |  |  |
| GPC1 ADC (conjugate) heavy: QVQLKQSGPELVKPGASVKISCKASGYSFTGYYMHWVKQSPEKSLEWIGEINPSTGDTTYNQKFKAKATLTVDKSSSTAYMQLKSLTSEDSAVYYCAREKRDDGVFAYWGQGTLVTVSSAKTTAPSVYPLAPVCGDTTGSSVTLGCLVKGYFPEPVTLTWNSGSLSSGVHTFPAVLQSDLYTLSSSVTVTSSTWPSQSITCNVAHPASSTKVDKKIEPRGPTIKPCPPCKCPAPNLLGGPSVFIFPPKIKDVLMISLSPIVTCVVVDVSEDDPDVQISWFVNNVEVHTAQTQTHREDYNSTLRVVSALPIQHQDWMSGKEFKCKVNNKDLPAPIERTISKPKGSVRAPQVYVLPPPEEEMTKKQVTLTCMVTDFMPEDIYVEWTNNGKTELNYKNTEPVLDSDGSYFMYSKLRVEKKNWVERNSYSCSVVHEGLHNHHTTKSFSRTPGK light: DIVMSQSPKSMSMSVGERVALSCKASENVGTYVSWYQQKPEQSPKLLIYGASNRYTGVPDRFTGSGSATDFTLTISSVQAEDLADYYCGQSYSYPLTFGAGTKLELKRADAAPTVSIFPPSSEQLTSGGASVVCFLNNFYPKDINVKWKIDGSERQNGVLNSWTDQDSKDSTYSMSSTLTLTKDEYERHNSYTCEATHKTSTSPIVKSFNRNEC |  | high affinity | significantly delayed | Tumor hardly grew | Tumor hardly grew | transient decrease in body weight | Significant toxicity was not observed | hardly changed | decreases with the passage of incubation time | about the same |
